Assays:
Assay in all cases: purified protein
Format in all cases: biochemical, Kluyvera intermedia
Settings in all cases: 1 mM ATP, 1 mM MgCl2, 2 mM KCl, 100 mM HEPES pH 7.5
[1] = tested on: NC[C@@H]1O[C@H](O[C@H]2[C@@H](O)[C@H](O[C@@H]3[C@@H](O)[C@H](N)C[C@H](N)[C@H]3O[C@H]3O[C@H](CO)[C@@H](O)[C@H](O)[C@H]3N)O[C@@H]2CO)[C@H](N)[C@@H](O)[C@@H]1O
[2] = tested on: NC[C@H]1O[C@H](O[C@H]2[C@H](O)[C@@H](O[C@H]3O[C@H](CO)[C@@H](O)[C@H](N)[C@H]3O)[C@H](N)C[C@@H]2N)[C@H](O)[C@@H](O)[C@@H]1O
[3] = tested on: NC[C@H]1O[C@H](O[C@H]2[C@H](O[C@@H]3O[C@H](CO)[C@@H](O)[C@H]3O)[C@@H](O)[C@H](N)C[C@@H]2N)[C@H](N)[C@@H](O)[C@@H]1O

Substance: APH(3′)-Id (Kluyvera intermedia)
- Km [1]: 12.19 ± 1.56 µM
- kcat [1]: 2.64 ± 0.072 s⁻¹
- kcat/Km [1]: 218000 ± 21000 M⁻¹ s⁻¹
- Km [2]: 10.04 ± 2.95 µM
- kcat [2]: 1.06 ± 0.114 s⁻¹
- kcat/Km [2]: 110000 ± 18000 M⁻¹ s⁻¹
- Km [3]: 3.831 ± 1.57 µM
- kcat [3]: 1.73 ± 0.023 s⁻¹
- kcat/Km [3]: 496000 ± 163000 M⁻¹ s⁻¹
